Series [1] has as its target T1, SMAD3 (UniProt P84022 1-425). The experiment in a line: EMSA; 10 mM HEPES pH 7.9, 10 mM KCl, 1.5 mM MgCl2, 1 mM DTT, 5% glycerol, 20 nM Cy5-DNA, on ice; 6% PAGE at 4 C. Conditions: protein: recombinant; label: 5'-Cy5 on strand 1; blunt.
Series [2] addresses OGG1 (UniProt O15527 1-345). The series is described as above. To be noted: protein: commercial; tags: His; label: 5'-Cy5 on strand 1; blunt.
Series [3] has as its target T1, SMAD3. Nature of the series: EMSA; OGG1 + TH2840 (no decrease); 10 mM HEPES pH 7.9, 10 mM KCl, 1.5 mM MgCl2, 1 mM DTT, 5% glycerol, 20 nM Cy5-DNA, on ice; 6% PAGE at 4 C. Conditions: protein: recombinant; label: 5'-Cy5 on strand 1; blunt.
Series [4] has as its target SMAD2 (UniProt Q15796 1-467). The experiment in a line: EMSA; with OGG1 100 nM, SMAD2 800 nM; shift increased; 10 mM HEPES pH 7.9, 10 mM KCl, 1.5 mM MgCl2, 1 mM DTT, 5% glycerol, 20 nM Cy5-DNA, on ice; 6% PAGE at 4 C. Conditions: protein: recombinant; label: 5'-Cy5 on strand 1; blunt. (In EMSA bound probe runs differently from free probe, usually more slowly.)

OGG1, sequence (O15527 whole entry): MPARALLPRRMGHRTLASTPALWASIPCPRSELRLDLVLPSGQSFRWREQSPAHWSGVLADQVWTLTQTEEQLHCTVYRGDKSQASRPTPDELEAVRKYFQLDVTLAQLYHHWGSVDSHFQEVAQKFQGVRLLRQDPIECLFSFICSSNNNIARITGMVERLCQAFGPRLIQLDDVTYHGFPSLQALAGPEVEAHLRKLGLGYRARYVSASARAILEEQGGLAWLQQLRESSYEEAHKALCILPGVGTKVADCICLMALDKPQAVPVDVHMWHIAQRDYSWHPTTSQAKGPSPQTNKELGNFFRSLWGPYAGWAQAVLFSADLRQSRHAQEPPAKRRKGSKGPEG
T1 sequence (P84022 whole entry): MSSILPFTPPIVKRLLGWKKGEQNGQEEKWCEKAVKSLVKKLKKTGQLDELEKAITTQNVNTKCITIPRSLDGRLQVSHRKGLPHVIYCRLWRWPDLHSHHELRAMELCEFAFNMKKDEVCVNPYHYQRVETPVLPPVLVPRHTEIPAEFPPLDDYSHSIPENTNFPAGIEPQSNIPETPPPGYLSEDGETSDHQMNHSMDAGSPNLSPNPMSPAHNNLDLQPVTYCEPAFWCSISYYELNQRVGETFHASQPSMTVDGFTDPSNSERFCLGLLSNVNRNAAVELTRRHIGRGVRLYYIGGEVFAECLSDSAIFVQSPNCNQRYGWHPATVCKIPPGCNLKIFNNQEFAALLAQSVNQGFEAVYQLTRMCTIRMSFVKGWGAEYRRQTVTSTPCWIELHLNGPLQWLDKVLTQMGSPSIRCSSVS
SMAD2, sequence (Q15796 whole entry): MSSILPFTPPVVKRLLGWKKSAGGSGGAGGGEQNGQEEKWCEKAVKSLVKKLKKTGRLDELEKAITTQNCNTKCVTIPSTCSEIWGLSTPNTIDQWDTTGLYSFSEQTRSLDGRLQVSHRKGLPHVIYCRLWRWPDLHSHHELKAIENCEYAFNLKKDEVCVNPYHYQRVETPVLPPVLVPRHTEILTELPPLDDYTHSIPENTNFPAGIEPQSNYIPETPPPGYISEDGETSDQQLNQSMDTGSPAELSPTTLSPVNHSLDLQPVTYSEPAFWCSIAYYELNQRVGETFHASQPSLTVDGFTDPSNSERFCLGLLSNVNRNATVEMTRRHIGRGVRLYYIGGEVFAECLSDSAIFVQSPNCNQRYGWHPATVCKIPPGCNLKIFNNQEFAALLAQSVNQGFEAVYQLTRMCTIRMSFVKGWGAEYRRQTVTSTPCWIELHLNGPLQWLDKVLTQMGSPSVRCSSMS

B1: G'1 (dsDNA)
DNA 1: CCCCAGGGTGAGCCCAGCTCAGACTATCATCCGGAAAGCCCCCAAAAGTCCCAGCCC
DNA 2: GGGCTGGGACTTTTGGGGGCTTTCCGGATGATAGTCTGAGCTGGGCTCACCCTGGGG
modifications: 8-oxoG at strand 1 position 6
Consider B1, for which the binding result in series [1] and in series [2] was “binds” each time.

B2: G'3 (dsDNA)
DNA 1: CCCCAGGGTGAGCCCAGCTCAGACTATCATCCGGAAAGCCCCCAAAAGTCCCAGCCC
DNA 2: GGGCTGGGACTTTTGGGGGCTTTCCGGATGATAGTCTGAGCTGGGCTCACCCTGGGG
modifications: 8-oxoG at strand 2 position 43 from its 5' end (opposite strand 1 position 15)
Consider B2, for which the binding result in series [2], in series [3] and in series [4] was “binds” each time.

B3: G'2 (dsDNA)
DNA 1: CCCCAGGGTGAGCCCAGCTCAGACTATCATCCGGAAAGCCCCCAAAAGTCCCAGCCC
DNA 2: GGGCTGGGACTTTTGGGGGCTTTCCGGATGATAGTCTGAGCTGGGCTCACCCTGGGG
modifications: 8-oxoG at strand 2 position 6 from its 5' end
On to B3, for which the binding result in series [1] and in series [2] was “binds” throughout.

B4: G (dsDNA)
DNA 1: CCCCAGGGTGAGCCCAGCTCAGACTATCATCCGGAAAGCCCCCAAAAGTCCCAGCCC
DNA 2: GGGCTGGGACTTTTGGGGGCTTTCCGGATGATAGTCTGAGCTGGGCTCACCCTGGGG
In the case of B4, in series [1], the binding result is on record as “binds”.
